The supplement of paper PMC7125110
± gives the standard error. This sample holds only a part of the variants without activity.

B1: glmS ribozyme (parent)
chain: AUAAAAGCGCCAGAACUACAGAAAUGUAGUUGACGAGGAGGAGGUUUAUCGAAUUUUCGGCGGAUGCCUCCAAA

Key:
Conditions in all cases: with glucosamine-6-phosphate
glucosamine-6-phosphate [1] = variants of: B1; assay: self-cleavage kobs at 40 uM GlcN6P; higher = faster cleavage; RNA array
Method in brief: (§1)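 kcat and KM were obtained from weighted Michaelis–Menten fits across concentrations of kobs values. Those came from one- or two-exponential decay fits to per-tile medians normalised to baseline and to non-cleaving reference variants. The variants were barcoded ribozymes transcribed in situ by E. coli RNA polymerase on sequenced MiSeq chips and tracked through a hybridised Cy3 probe at 37 °C, with 40 μM to 10 mM glucosamine-6-phosphate in HEPES/KCl/Mg(OAc)2 buffer flowed in.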

glucosamine-6-phosphate [2] = variants of: B1; assay: self-cleavage kobs at 160 uM GlcN6P; higher = faster cleavage; RNA array
Method in brief: as §1

glucosamine-6-phosphate [3] = variants of: B1; assay: self-cleavage kobs at 640 uM GlcN6P; higher = faster cleavage; RNA array
Method in brief: as §1

glucosamine-6-phosphate [4] = variants of: B1; assay: self-cleavage kobs at 10000 uM GlcN6P; higher = faster cleavage; RNA array
Method in brief: as §1

glucosamine-6-phosphate [5] = variants of: B1; assay: self-cleavage kobs at 2500 uM GlcN6P; higher = faster cleavage; RNA array
Method in brief: as §1

Row | Variant | self-cleavage kobs at 40 uM GlcN6P (glucosamine-6-phosphate [1]) [s⁻¹] | self-cleavage kobs at 160 uM GlcN6P (glucosamine-6-phosphate [2]) [s⁻¹] | self-cleavage kobs at 640 uM GlcN6P (glucosamine-6-phosphate [3]) [s⁻¹] | self-cleavage kobs at 10000 uM GlcN6P (glucosamine-6-phosphate [4]) [s⁻¹] | self-cleavage kobs at 2500 uM GlcN6P (glucosamine-6-phosphate [5]) [s⁻¹]
1 | AUAAAAGAGCCAGAUCUACAGAAAUGUAGUUGACGGGGAGGAGGUUUAUCGAAUUUUCGGCGGAUGCCUCCAAA [C8A A15U A36G] | < 1e-05 |  |  |  | 
2 | AUAAAAUCGCCAGAACUACAGAAAUGUAGUUGACGAGGAGGAGGUUUAUCGAAUUUUCGUCGGAUGCCUCCAAA [G7U G60U] | < 1e-05 | < 1e-05 | < 1e-05 | < 1e-05 | 
3 | AUAAAAGAGCCAGAUCUACAGAAAUGUAGUUGACGAGGAGGAGGUUUAUCGAAUUUUCGGCGGAUGCCUCCAAA [C8A A15U] | < 1e-05 | < 1e-05 | < 1e-05 | < 1e-05 | < 1e-05
4 | AUAAAAUCGCCAGAACUACAGAAAUGUAGUUGACGACGAGGAGGUUUAUCGAAUUUUCGGAGGAUGCGUUCAAA [G7U G37C C61A C68G C70U] | 0.000181 ± 5.8e-05 |  |  | 9.36e-05 ± 2.7e-05 | 
5 | AUAAAAUCGCCAGAACUACAGAAAUGUAGUUUACGAGGAGGAGGUUUAUCGAAUUUUCGGCGGAUGCCUCCAAA [G7U G32U] | < 1e-05 | < 1e-05 | < 1e-05 | < 1e-05 | < 1e-05
6 | AUAAAAGAGCCAGAACUACAGAAAUGUAGUUGACGUGGAGGAGGUUUAUCGAAUUUUCGGCGGAUGCCUCCAAA [C8A A36U] | < 1e-05 | < 1e-05 | < 1e-05 | < 1e-05 | < 1e-05
7 | AUAAAAUCGCCAGAACUACAGAAAUGUAGUUUACGAGGAGGAGGUUUAACGAAUUUUCGGCGGAUGCCUCCAAA [G7U G32U U49A] | < 1e-05 |  | < 1e-05 | < 1e-05 | < 1e-05
8 | AUAAAAUCGCCAGAACUACAGAAAUGUAGGUGACGAGGAGGAGGUUUAUCGAAUUUUCGGCGGAUGCCUCCAAA [G7U U30G] | < 1e-05 | < 1e-05 |  | < 1e-05 | 
9 | AUAAAAUCGCCAGAACUACAGAAAUGUAGAUGACGAGGAGGAGGUUUAUCGAAUUUUCGGCGGAUGCCUCCAAA [G7U U30A] | < 1e-05 | < 1e-05 | < 1e-05 |  | < 1e-05
10 | AUAAAAUCGCCAGAACUACAGAAAUGUAGUUGACGAGGAGGAGGUUUAACGCAUUUUCGCUGGAUGCCUCCAAA [G7U U49A A52C G60C C61U] | < 1e-05 |  | < 1e-05 | < 1e-05 | < 1e-05
11 | AUAAAAUCGCCAGAACUACAGAAAUGUACUUGACGAGGAGGAUGUUUAUCAAAUUUUCGGCGGAUGCCUCCAAA [G7U G29C G43U G51A] | < 1e-05 |  |  | < 1e-05 | 
12 | AUAAAAUCGCCAGAACUACAGAAAUGUAGUCGACGAGGAGGAGGUUUAUCGAAUUUUCUGCGGAUGCCUCCAAA [G7U U31C G59U] | < 1e-05 |  |  |  | 
13 | AUAAAAUCGCCAGAACUACAGAAAUGUAGUUGACGAGUAGGAGGUGUAUCGAAUUUUCGGCGGAUGCCUCCAAA [G7U G38U U46G] | < 1e-05 |  |  |  | 
14 | AUAAAAUCGCCAGAACUACAGAAAUGUAGUUGACGAGGAGGAGGUUUAUCGAAGUUUCGGCGGAUGCCUGUAAA [G7U U54G C70G C71U] | 7.3e-05 ± 2.8e-05 |  |  | 5.65e-05 ± 2.5e-05 | 
15 | AUAAAAUCGCCAGAACUACAGAAAUGUAGUUGACGAGGAGGAGGGUUAUCGAAUUUUCGGCGGAUGCCUCAAAA [G7U U45G C71A] | < 1e-05 |  |  | < 1e-05 | < 1e-05
16 | AUAAAAUCGCCAGAACUACAGAAAUGUAGUUGACUAGGAGGAGGUUUAUCGAAUUUUCGGCGGAUGCCUCCAAA [G7U G35U] | < 1e-05 | < 1e-05 |  | < 1e-05 | < 1e-05
17 | AUAAAAUCGCCAGAACUACAGAAAUGUAGUGGACGAGGAGGAGGUUUAUCGAAUUUUCGGCAGAUGCCUCCAAA [G7U U31G G62A] | < 1e-05 |  |  | < 1e-05 | < 1e-05
18 | AUAAAAUCGCCAGAACUACAGAAAUGUAGUAGACGAGGAGGAGGUUUAUCGAAUUUUCGGCGGAUGCCUCCAAA [G7U U31A] | < 1e-05 | < 1e-05 | < 1e-05 | < 1e-05 | < 1e-05
19 | AUAAAAUCGCCAGAACUACAGAAAUGUAGUUGACGAGGAGGAGGUUUAACGAAUUUUCGGCGGAUGCCUCCAAA [G7U U49A] | < 1e-05 | < 1e-05 | < 1e-05 | < 1e-05 | < 1e-05
20 | AUAAAAUCGCCAGAACUACAGAAAUGUAGUUGACGAGGAGGAGGUUUAUCGAAUUAUCGGCGGAUGCCUCCAAA [G7U U56A] | < 1e-05 | < 1e-05 | < 1e-05 | < 1e-05 | 
21 | AUAAAAUCGCCAGAACUACAGAAAUGUAGUUGACGAGGAGUAGGUUUUUCGAAUUUUCGGCGGAUGCCUCCAAA [G7U G41U A48U] | < 1e-05 |  |  |  | 
22 | AUAAAAGAGCCUGAACUACAGAAAUGUAGUUGACGAGGGGGAGGUUUAUCGAAUUUUCGGCGGAUGCCUCCAAA [C8A A12U A39G] | < 1e-05 |  | < 1e-05 | < 1e-05 | 
23 | AUAAAAGAGCCAGAACUACAGAAAUGUAGUUGACGUGGAGGAGGUUUAUCGAAUUUUCGGCGGUUGCCUUCAAA [C8A A36U A64U C70U] | < 1e-05 |  | < 1e-05 |  | < 1e-05
24 | AUAAAAGAGCCUGAACUACAGAAAUGUAGUUGCCGAGGGGGAGGUUUAUCGACUUUUCGGCGGAUGCAUCCAAA [C8A A12U A33C A39G A53C C68A] | < 1e-05 |  |  |  | 
